How the values were obtained:
[1] = molecular target: T1, variant nuclease E736G combination (P14R, D32R, I61R, E311R, E736G); assay: cell_activity; PAM 5'-TTTA-3'; settings: tags: pcDNA3.1 expression
T1 chain: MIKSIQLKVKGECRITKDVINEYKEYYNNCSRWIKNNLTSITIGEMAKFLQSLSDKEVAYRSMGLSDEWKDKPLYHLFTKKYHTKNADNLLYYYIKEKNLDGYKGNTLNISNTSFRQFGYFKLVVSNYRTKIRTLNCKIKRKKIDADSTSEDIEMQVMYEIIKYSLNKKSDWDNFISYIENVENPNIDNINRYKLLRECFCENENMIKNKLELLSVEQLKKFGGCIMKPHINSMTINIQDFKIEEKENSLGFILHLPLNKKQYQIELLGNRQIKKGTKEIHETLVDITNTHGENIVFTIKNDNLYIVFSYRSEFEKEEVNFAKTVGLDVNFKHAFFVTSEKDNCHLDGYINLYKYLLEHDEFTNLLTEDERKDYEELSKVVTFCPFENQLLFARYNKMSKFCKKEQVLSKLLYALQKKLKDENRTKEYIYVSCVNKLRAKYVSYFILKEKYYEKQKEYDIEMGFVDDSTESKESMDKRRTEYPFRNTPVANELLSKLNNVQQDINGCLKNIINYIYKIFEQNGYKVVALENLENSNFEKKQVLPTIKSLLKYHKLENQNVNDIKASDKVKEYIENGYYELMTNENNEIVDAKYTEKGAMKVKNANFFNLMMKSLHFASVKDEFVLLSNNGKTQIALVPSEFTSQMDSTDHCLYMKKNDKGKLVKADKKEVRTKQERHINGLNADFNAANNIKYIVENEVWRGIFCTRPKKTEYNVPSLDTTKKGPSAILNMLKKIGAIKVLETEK
Method: (§1) Approximately 16 hours prior to transfection, 25,000 HEK293T cells in DMEM/10% FBS+Pen/Strep (D10 media) were plated into each well of a 96-well plate. On the day of transfection, the cells were 70-90% confluent. For each well to be transfected, a mixture of Lipofectamine 2000™ and Opti-MEM™ was prepared and incubated at room temperature for 5 minutes (Solution 1). After incubation, the Lipofectamine 2000™:Opti-MEM™ mixture was added to a separate mixture containing nuclease plasmid, RNA guide plasmid, and Opti-MEM™ (Solution 2). In the case of negative controls, the RNA guide plasmid was not included in Solution 2. Solutions 1 and 2 were mixed by pipetting up and down, then incubated at room temperature for 25 minutes. Following incubation, the Solution 1 and 2 mixture was added dropwise to each well of a 96-well plate containing the cells. Approximately 72 hours post transfection, cells were trypsinized by adding TrypLE™ to the center of each well and incubating at 37° C. for approximately 5 minutes. D10 media was then added to each well and mixed to resuspend cells. The resuspended cells were centrifuged at 500 g for 10 minutes to obtain a pellet, and the supernatant was discarded. The cell pellet was then resuspended in QuickExtract™ buffer (Lucigen®), and cells were incubated at 65° C. for 15 minutes, 68° C. for 15 minutes, and 98° C. for 10 minutes.
(§2) This Example describes assessment of indel activity at multiple target sites using the wild-type polypeptide of SEQ ID NO: 3 or variant polypeptides of Table 4. The variant polypeptides were cloned into a pcDNA3.1 backbone (Invitrogen), and the cells were transfected as described in Example 7.
(§3) The percentage of NGS reads containing indels (% indels) were calculated. For each variant polypeptide and target, % indels were averaged across two bioreplicates and two technical replicates. These values were then compared to % indels of the wild-type polypeptide of SEQ ID NO: 3.

[2] = molecular target: T2, variant nuclease K35G combination (P14R, D32R, I61R, E311R, K35G); assay: cell_activity; PAM 5'-TTTA-3'; settings: tags: pcDNA3.1 expression
T2 chain: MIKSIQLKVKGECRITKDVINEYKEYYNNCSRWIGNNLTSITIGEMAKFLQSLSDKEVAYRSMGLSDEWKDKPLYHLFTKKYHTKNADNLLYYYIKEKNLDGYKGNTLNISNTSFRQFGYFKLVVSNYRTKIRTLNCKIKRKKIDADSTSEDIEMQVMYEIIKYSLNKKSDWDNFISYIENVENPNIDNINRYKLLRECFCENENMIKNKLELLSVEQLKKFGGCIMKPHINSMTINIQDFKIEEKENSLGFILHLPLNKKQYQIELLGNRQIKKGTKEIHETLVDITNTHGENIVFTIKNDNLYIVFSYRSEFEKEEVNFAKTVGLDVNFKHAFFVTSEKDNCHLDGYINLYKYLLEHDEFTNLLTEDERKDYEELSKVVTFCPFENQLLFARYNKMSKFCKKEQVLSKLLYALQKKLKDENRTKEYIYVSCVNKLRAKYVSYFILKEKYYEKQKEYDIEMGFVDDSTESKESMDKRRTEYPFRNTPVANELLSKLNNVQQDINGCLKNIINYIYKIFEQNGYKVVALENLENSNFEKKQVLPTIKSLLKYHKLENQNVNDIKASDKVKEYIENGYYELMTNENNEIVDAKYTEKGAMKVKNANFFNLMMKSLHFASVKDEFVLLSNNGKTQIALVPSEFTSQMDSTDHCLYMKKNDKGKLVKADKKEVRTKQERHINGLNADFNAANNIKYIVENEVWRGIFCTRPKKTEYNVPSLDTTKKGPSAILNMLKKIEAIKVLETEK
Method: as §1, §2, §3

B1: VEGFA crRNA ; VEGFA target (ssRNA ; dsDNA)
RNA: CUUGUUGUAUAUGUCCUUUUAUAGGUAUUAAACAACUCCAGACCACCAAUGGGCAC
DNA 1: TCCAGACCACCAATGGGCAC
DNA 2: GTGCCCATTGGTGGTCTGGA
In the case of B1, the indel activity [1] is reported as 2.65 fold of WT and the indel activity [2] is reported as 2.69 fold of WT.

From US20240035010, “COMPOSITIONS COMPRISING A VARIANT POLYPEPTIDE AND USES THEREOF” (Arbor Biotechnologies, Inc., published 2024)
